Reference: US8697648B2, “Protein agent for diabetes treatment and β cell imaging” (Georgia State University Research Foundation, Inc., priority 2009, dated 2014)

Legend:
RINm5F cells = test: Immunostaining binding analysis, RINm5F cells (GLP-1R expressed); format: cell-based, rat; conditions: Cal.GLP 10 μM, calbindin D9k 50 μM, 37° C., 30 mins
Experimental: (§1) FIG. 10 is a series of digital images showing immunofluorescence staining of CHO or RINm5F cells that were treated by calbindin (50 μM) and Cal.GLP (10 μM). The cells were extensively washed after 30 min treatments under 37° C. in microscopic chamber slides and subsequently fixed. The cells were stained with the calbindin-specific antibody and visualized under confocal microscopy. The light shading represents antibody staining.
(§2) To examine whether the developed protein indeed interacted with GLP-1R, the binding of the fusion protein with two cell lines, RINm5F and CHO cells was examined. It is well known that GLP-1R is expressed in RINm5F but not in CHO cells. Both RINm5F and CHO cells were incubated with fusion protein Cal.GLP (10 μM) or calbindin D9k (50 μM) at 37° C. for 30 mins. After extensive washing, the cells were fixed and subjected to immunostaining analyses using a rabbit polyclonal antibody against parental protein calbindin D9k. […] Similar binding analyses were carried out with RINm5F cells and a […] (αTC1).

[1] = Protein serum stability test in mice serum (SDS-PAGE); format: in vitro ADME; conditions: mice serum 1:1, 37° C., 24 hrs
Experimental: FIG. 5 is a digital image of a gel analysis of a protein serum stability test. A 16% SDS-PAGE without DTT was used to analysis the protein level after incubation with mice serum for certain time. Lane 1: mice serum only; Lane 2: fusion protein only; Lanes 3-5: fusion protein incubated with 50% serum for 1 hr, 3 hrs, and 24 hrs respectively; Lane 6: PEGylated protein only; Lanes 7-9: PEGylated protein incubated with 50% serum for 1 hr, 3 hrs, and 24 hrs respectively.
The fusion protein and PEGylated protein were incubated with mice serum at a ratio 1:1, in 37° C. for 1 hr, 3 hrs and 24 hrs. Samples were then analyzed by 16% SDS-PAGE.
The fusion protein and PEGylated protein were incubated with mice serum at a 1:1 ratio at 37° C. for 1 hr, 3 hrs, and overnight. SDS-PAGE was then used to analyze the protein stability.

[2] = system: Diabetic mice (BKS.Cg-Lepr^db/db); test: Blood glucose lowering in fed diabetic mice (Example 15); format: in vivo
Experimental: The animals were re-feed for 25 minutes 5 hours after drug administration and 35 minutes before the last time point of blood sample collection. The A Blood Glucose (mg/dl) was determined by calculating the difference between the measured blood glucose levels at any given time point and the initial blood glucose levels. The initial blood glucose levels were measured after feeding for 20 min and before the drug administration (time zero). The error bars represent standard deviations of measurements of eight mice.
The developed protein agent was tested to determine whether it had the in vivo capability of lowering blood glucose in diabetic subjects. Diabetic mice (BKS.Cg-Lepr^db/db, The Jackson Laboratory) were used as test subjects. A group of six animals first fasted for 6 hours. After fasting, the animals were fed for 30 minutes. The protein agent was administered after feeding by intraperitoneal injection at a dose of 25 nmole/kg. The animals were fed again for 30 mins, 5 hrs after agent administration. Blood samples were taken at different time points after administration of the agent. Glucose concentration in the blood samples was measured using a commercially available kit.

diabetic mice [3] = test: Four week daily treatment, blood glucose and body weight (Example 19); format: in vivo; conditions: 25 nmole/kg i.p. daily for 4 weeks
Experimental: (§3) Agents (indicated in the figures 25 nmole/kg) were administrated by i.p. at daily at the same time 2:00 pm for 4 weeks. The animals were returned to the ages. Blood samples (about 20 ml) were draw daily at 5:00 pm for 4 weeks. Glucose in blood samples was measured. Blood glucose levels were plotted against day. Animal body weight was weighed daily before drawing blood. Average body weight of each group of six mice was plotted against days.
as §3, with “The effects of the developed agent and PEGylated agents on blood glucose lowering in diabetic mice were examined in a four week treatment course. Agents” for “Agents”, “figures at” for “figures”, “i.p.” for “i.p. at”, “(−20 μl)” for “(about 20 ml)”

αTC1 cells = test: Immunostaining binding analysis, αTC1 cells; format: cell-based
Experimental: as §2

CD-1 mice = test: Toxicity in healthy CD-1 mice; format: in vivo; conditions: one or two doses of 100 μl (6 mM), 14 days
Experimental: One group of mice (7 mice per group) were injected with one dose of 100 μl of the agent (6 mM) and another group of animals were injected with two doses of the agent (100 μl of agent (6 mM)) with 8 hours time interval between the two injections. The animals were returned to their cages for 14 days. Among 14 tested mice, no mouse died. All animals behaved normally (no change in eating habits. No abnormal weight gain or loss. No abnormal appearance on fur).

CHO cells = test: Immunostaining binding analysis, CHO cells (no GLP-1R); format: cell-based; conditions: Cal.GLP 10 μM, calbindin D9k 50 μM, 37° C., 30 mins
Experimental: as §1, §2

[4] = NMR and fluorescence spectrum analyses in different pH conditions; format: physicochemical; conditions: pH 3, 5, 7, 9, 10
Experimental: FIG. 8 is a graph showing the fluorescence spectrum of the protein Cal.GLP (50 μM) at various pH values. The spectrum at each pH was compared to that of completely denatured Cal.GLP in 8M Urea.
(§4) The fusion protein Cal.GLP was incubated with 75% human serum for a time course (up to 48 hrs). The protein was then analyzed by SDS-PAGE and stained by coomassie blue.

Stability to boiling = format: physicochemical; conditions: boiling for 10 minutes
Experimental: This property led to a simplified one ion-exchange column chromatography procedure of protein purification. The bacterial lysate was boiled for 10 minutes. Most bacterial proteins were precipitated due to denaturing by boiling. The fusion protein stayed in supernatant. The protein was then further purified by an ion-exchange column. Approximately 30-50 mg purified fusion protein per liter of bacterial culture were obtained.

[5] = Stability in 75% human serum (SDS-PAGE); format: in vitro ADME; conditions: 48 hour
Experimental: FIG. 7 is a digital image of an SDS-PAGE analysis of serum stability of the fusion protein Cal.GLP. […] Cal.GLP was incubated with 75% human serum (S+CA) in […] at 37° C. for 1 hour (lane 3), 3 hours (lane 4), and 24 hours (lane 5). The mixture was separated by 16% SDS-PAGE and visualized by coomassie blue staining. Lane 1 is 75% human serum (S) and lane 2 is Cal.GLP only (CA). Lane M is molecular weight markers.
as §4

diabetic mice [6] = test: Blood glucose and glucose-dependent insulin secretion after co-administration with glucose (Example 16); format: in vivo; conditions: 25 nmole/kg agent with 15 mmole/kg glucose i.p.
Experimental: FIG. 12 is a pair of graphs showing the changes in Δ blood glucose (Upper panel) and Δ insulin (bottom panel) in a group of 8 diabetic mice at different time points after injection of 15 mmole/kg of glucose with 25 nmole/kg of different agents.
The effects of the developed agent on blood glucose lowering and stimulating of the glucose-dependent insulin secretion in diabetic mice were also examined. The animals first fasted for 6 hours. The protein agent (25 nmole/kg) and glucose (15 mmole/kg) were co-administrated via intraperitoneal injection with a group of eight diabetic mice. The blood glucose and insulin levels were measured at different time points. As controls, the same dose of glucose was administrated alone and co-administrated with the parental protein calbindin in separate groups of diabetic mice.

B1: Cal.GLP: GLP-1 grafted into human calbindin D9k by replacing a C-terminal helix; SEQ ID NO: 14 (protein)
chain: MSTKKSPEELKRIFEKYAAKEGDPDQLSKDELKLLIQAEFPSLLKGPNTLDDLFQELDKNGHAEGTFTSDVSSYLEGQAAKEFIAWLVKGRG
modifications: Fusion protein Cal.GLP
binding to RINm5F cells (RINm5F cells): bound to RINm5F cells
degradation in mice serum [1]: no degradation
blood glucose decrease and effective time compared to exendin-4 ([2]; 25 nmole/kg i.p.): bigger blood glucose decrease and significantly longer effective time
drop of blood glucose levels ([2]; 25 nmole/kg i.p., 4 hour time course): about 215 mg/dl
blood glucose levels after re-feed ([2]; 6 hours post administration, one hour after re-feed): minor increase in blood glucose levels
body weight change (diabetic mice [3]): did not result significant weight gain or lose
lowering and stabilizing the blood glucose (diabetic mice [3]): stronger effects in lowering and stabilizing the blood glucose
binding to αTC1 cells (αTC1 cells): not to αTC1 cells
acute toxicity (CD-1 mice): did not have acute toxicity
mortality (CD-1 mice; 14 mice): no mouse died
binding to CHO cells (CHO cells): not CHO cells
folding in different pH conditions [4]: remained folded in wide ranges of pH conditions
integrity and folding after boiling (Stability to boiling): remained intact and folded
integrity after incubation with human serum [5]: remained intact
blood glucose lowering post glucose and drug administration (diabetic mice [6]): dramatic blood glucose lowering
duration of increase in insulin and decrease in glucose (diabetic mice [6]): ~2 h
glucose lowering and duration compared to exendin-4 (diabetic mice [6]): larger glucose lowering in longer duration
